The target in one data set is AURKB (UniProt Q96GD4). Briefly: co-precipitation from cells, immunoblot. Particulars: reference: NSFL1C wild type; sites S140.

Where two headings read alike, the source gives them in different places.

For the substance “NSFL1C (from UniProt Q9UNZ2) NSFL1C-S140A”, the “binding against the reference” value with AURKB is “weaker”.

With AURKB: AURKB-3KR (K31R/K56R/K85R), the enzymatic_activity entry was “decreases” (ubiquitination at K31), “decreases” (ubiquitination at K56) and “decreases” (ubiquitination at K85). Besides, the localisation_or_trafficking result reads like this: (ubiquitination at K31) “decreases”; (ubiquitination at K56) “decreases”; (ubiquitination at K85) “decreases”.

For NSFL1C: NSFL1C-S140A, where the note is “phosphorylation at S140”, the other result was “abolishes”.

(Values after paper PMC10760972.)
